Drawing on paper PMC12224427, “The non-metabolic function of 6PGD coordinates CCNA2 and HMGA2 expression to drive colorectal cancer progression and drug response” (Journal of Experimental & Clinical Cancer Research : CR, 2025), this text covers Kd for one molecule.

The target of this assay is T1, recombinant 6PGD (re6PGD) (UniProt P52209 1-483).
T1 construct: 6-phosphogluconate dehydrogenase (6PGD), wild type; source: bacterially expressed recombinant
T1 sequence (looked up): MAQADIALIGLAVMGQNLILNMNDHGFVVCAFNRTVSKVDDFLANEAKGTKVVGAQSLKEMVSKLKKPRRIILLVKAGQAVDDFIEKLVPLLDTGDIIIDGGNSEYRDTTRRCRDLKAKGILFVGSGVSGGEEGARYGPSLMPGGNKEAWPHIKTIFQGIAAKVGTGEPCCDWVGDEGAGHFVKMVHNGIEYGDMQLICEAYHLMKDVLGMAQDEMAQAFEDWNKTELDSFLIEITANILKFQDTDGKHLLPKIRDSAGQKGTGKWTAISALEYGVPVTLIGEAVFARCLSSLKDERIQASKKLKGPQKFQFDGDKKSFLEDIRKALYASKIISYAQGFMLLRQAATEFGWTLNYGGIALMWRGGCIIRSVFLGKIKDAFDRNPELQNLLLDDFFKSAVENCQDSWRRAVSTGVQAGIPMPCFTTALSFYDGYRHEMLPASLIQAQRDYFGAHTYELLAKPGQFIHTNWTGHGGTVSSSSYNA
The assay can be described thus: MST; microscale thermophoresis of 6PGD and ALKBH5 (Fig. S5A); conditions not shown. To be noted: both partners purified.

B1: recombinant ALKBH5 (reALKBH5; aa:66–292) (domain or fragment, UniProt Q6P6C2 66-292, looked up)
chain: PERSDYEEQQLQKEEEARKVKSGIRQMRLFSQDECAKIEARIDEVVSRAEKGLYNEHTVDRAPLRNKYFFGEGYTYGAQLQKRGPGQERLYPPGDVDEIPEWVHQLVIQKLVEHRVIPEGFVNSAVINDYQPGGCIVSHVDPIHIFERPIVSVSFFSDSALCFGCKFQFKPIRVSEPVLSLPVRRGSVTVLSGYAADEITHCIRPQDIKERRAVIILRKTRLDAPRL
notes: ALKBH5, residues 66-292; The range 66-292 is printed where the in vitro methylation assay is told; source: recombinant
For the molecule B1, the Kd was 1630 nM.
